Molecular target: the molecule itself
Assay: SEC + AUC

B1: HCoV-229E fusion core (FC1), HR1-linker-HR2 single chain (domain or fragment)
chain: ENQKILAASFNKAMTNIVDAFTGVNDAITQTSQALQTVATALNKIQDVVNQQGNSLNHLTSQLRQNFQLVPRGSGGSGGSGGLEVLFQGPDLVVEQYNQTILNLTSEISTLENKSAELNYTVQKLQTLIDNINSTLVDLKWL
  stoichiometry N: 3

— article PMC7092869 (Biochemical and Biophysical Research Communications, 2018)
